Experimental data from the supplement of paper PMC10567573.

B1: RAD51 (parent)
chain: APKKELINIKGISEAKADKILAEA

Variants of: B1
Assay: protein stability index of a GFP-peptide fusion (GPS, HEK-293T) (PSI 1-6); higher = more stable
Details: c terminus: a fixed tail appended
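Note: lentivirally expressed fusions sorted by FACS into six bins by GFP to DsRed ratio, PSI derived from sequencing read proportions per bin multiplied by bin number.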

Protein stability index of substitutions, site by site:
I7: P 5.04, K 4.78, H 5.01, R 4.59, F 3.8, D 5.31, M 4.99, Q 4.83, N 4.7, S 5.52, Y 4.73, V 5.39
E14: K 4.4, N 4.84, V 4.81, R 4.05, G 4.8, C 3.66, L 3.83, D 4.99, H 4.58, I 3.68, W 3.89, Y 3.65, T 4.43, S 4.23, F 3.48, A 4.4, M 4.23, P 4.96, Q 4.76
A1: S 4.52, G 4.71, C 4.73, W 3.75, Q 4.55, M 4.06, T 4.41, Y 3.83, N 4.71, R 4.63, D 4.31, H 4.37, L 4.72, I 4.39, P 4.67, V 4.08, E 5.23, F 3.87, K 4.84
I9: R 5.12, V 5.1, Y 4.91, N 5.26, K 5.22, W 4.65, G 5.11, T 5.24, C 5.4, S 4.89, Q 4.8, E 5.68, H 4.66, L 4.62, M 5.06, D 5.19, F 4.51, P 5.4
L6: W 4.12, F 4.4, K 5, S 4.79, A 5.16, I 4.4, G 4.73, M 4.92, N 4.94, P 5.31, R 4.61, C 4.97, H 5.13, Q 4.79, T 5.06, V 5.2, D 5.45, E 5.28, Y 4.46
K10: R 4.2, N 4.42, A 4.56, G 5.08, V 4.38, H 4.59, T 4.68, E 5.1, I 3.64, L 4.29, Q 4.46, W 3.99, D 5.12, F 3.82, S 5.35, Y 3.8, P 4.34, M 4.02, C 4.19
K16: T 5.22, P 4.84, W 1.64, V 3.98, L 3.28, I 3.8, D 5, H 4.78, G 5.01, F 3.67, E 5.08, Q 4.65, N 5.08, S 4.61, A 4.47, R 4.53, C 4.63, M 3.59, Y 3.93
A17: F 3.73, E 5.22, C 5.04, D 5.51
G11: I 3.39, K 4.68, T 4.59, S 5.46, D 4.9, H 4.8, L 3.69, V 4.37, A 5.12, W 3.4, M 3.98, Q 4.72, F 3.69, N 4.62, C 4.17, P 4.93, Y 4.18, R 4.37, E 4.74
P2: D 5.18, V 4.44, T 4.6, G 4.68, Q 4.88, R 4.02, Y 4.18, F 3.62, K 4.34, E 4.7, N 4.39, S 4.36, A 4.93, H 4.85, M 4.53, L 3.97, C 4.5, I 4.01, W 3.79
